From paper PMC4733404 (Cell, 2016)

Target: EBOV GP, soluble form of the full-length extracellular domain (Zaire ebolavirus, strain  …, UniProt Q05320)
Assay: ELISA

EBOV GP, soluble form of the full-length extracellular domain, sequence (Q05320 33-650): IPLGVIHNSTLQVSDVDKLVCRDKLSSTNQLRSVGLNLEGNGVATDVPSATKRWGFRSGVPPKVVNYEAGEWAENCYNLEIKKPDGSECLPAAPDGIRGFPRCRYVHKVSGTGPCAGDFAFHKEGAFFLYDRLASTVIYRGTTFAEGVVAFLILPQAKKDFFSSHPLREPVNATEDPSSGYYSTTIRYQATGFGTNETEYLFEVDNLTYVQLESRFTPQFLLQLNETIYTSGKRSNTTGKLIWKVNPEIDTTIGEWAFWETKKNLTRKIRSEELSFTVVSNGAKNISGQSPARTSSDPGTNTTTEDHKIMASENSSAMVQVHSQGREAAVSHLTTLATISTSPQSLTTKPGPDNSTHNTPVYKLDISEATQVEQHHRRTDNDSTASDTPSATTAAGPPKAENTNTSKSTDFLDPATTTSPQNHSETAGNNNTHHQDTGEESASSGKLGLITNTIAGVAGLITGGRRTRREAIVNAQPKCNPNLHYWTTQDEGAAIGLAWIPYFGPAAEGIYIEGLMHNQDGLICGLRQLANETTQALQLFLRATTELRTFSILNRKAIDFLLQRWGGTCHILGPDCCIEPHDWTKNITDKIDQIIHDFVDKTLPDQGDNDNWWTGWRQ

B1: BDBV289, human mAb (antibody, V domains shown)
VH: QVQLVQSGAEVKKPGSSVKVSCKASGATFGSDTVTWVRQAPGQGLEWMGGIIPFFGEANYAQRFQGRVTITADKSTNTAYMELSSLRSEDTAVYFCARQINEMATFGEIHYYTYMDVWGQGTLVTVSS
VL: GSELTQDPAVSVALGQTVRITCQGDSLRNYYASWYQQKPRQAPVLVFYGKNNRPSGIPDRFSGSSSGNTASLTISGAQAEDEADYYCNSRDSSSNHLVFGGGTKLTVL
- binding result: binds
